Measurements taken from US20050123549A1 (IMMUNOGEN, published 2005).

What was measured:
[1] = target: T1, Muc1 mucin carrying the CA6 sialoglycotope (human, UniProt P15941 24-1255, sialylated O-linked carbohydrate carrying the CA6 epitope; positions not stated); test: flow cytometry on Caov-4 cells, apparent Kd
T1 construct: whole, on cells; Target of DS6 on CA6-positive human cell lines (flow cytometry) and in their lysates (dot blots, immunoprecipitation); also called CA6 antigen; DS6 antigen
Description: (§1) Cells ([…]) were incubated, on ice for 3-4 h, with serially diluted concentrations of the DS6 antibody prepared in FACS buffer (2% goat serum, RPMI) into 96-well plates. The cells were spun down in a table top centrifuge at 1500 rpm for 5 min at 4° C. After removing the media, the wells were then refilled with 150 μl of FACS buffer. The wash step was then repeated. FITC-labeled goat anti-mouse IgG (Jackson Immunoresearch) was diluted 1:100 to FACS buffer and incubated with the cells for 1 h on ice. The plate was covered in foil to prevent photobleaching of the signal. After two washes, the cells were fixed with 1% formaldehyde and analyzed on a flow cytometer.

[2] = target: T1, Muc1 mucin carrying the CA6 …; test: flow cytometry on HPAC cells, apparent Kd
Description: as §1

[3] = target: T1, Muc1 mucin carrying the CA6 …; test: flow cytometry on WISH cells, direct binding
[4] = target: T1, Muc1 mucin carrying the CA6 …; test: flow cytometry on SW1990 cells, apparent Kd
Description: (§2) Human cell lines were obtained from the American Type Culture Collection (ATCC) with the exception of OVCAR5 (Kearse et al., Int. J. Cancer 88(6):866-872 (2000)), OVCAR8 and IGROV1 cells (M. Seiden, Massachusetts General Hospital). All cells were grown in RPMI 1640 supplemented with 4 mM L-glutamine, 50 U/ml penicillin, 50 μg/ml streptomycin (Cambrex Bio Science, Rockland, Me.) and 10% v/v fetal bovine serum (Atlas Biologicals, Fort Collins, Colo.), referred hereafter as culture media. Cells were maintained in a 37° C., 5% CO₂ humidified incubator.
as §1

[5] = target: T1, Muc1 mucin carrying the CA6 …; test: flow cytometry on MDA-MB-468 cells, apparent Kd
Description: as §2, §1

[6] = target: T1, Muc1 mucin carrying the CA6 …; test: flow cytometry on BT-549 cells, apparent Kd
Description: as §2, §1

[7] = target: T1, Muc1 mucin carrying the CA6 …; test: flow cytometry on HPAC cells, apparent Kd; remark: listed apart in the source
Description: as §2, §1

[8] = target: T1, Muc1 mucin carrying the CA6 …; test: flow cytometry on MDA-MB-231 cells, apparent Kd
Description: as §2, §1

[9] = target: T1, Muc1 mucin carrying the CA6 …; test: flow cytometry on KB cells, apparent Kd
[10] = target: T1, Muc1 mucin carrying the CA6 …; test: flow cytometry on HeLa cells, apparent Kd
Description: as §1

[11] = target: T1, Muc1 mucin carrying the CA6 …; test: flow cytometry on Hs766T cells, apparent Kd
[12] = target: T1, Muc1 mucin carrying the CA6 …; test: flow cytometry on HPAF-II cells, apparent Kd
Description: as §2, §1

[13] = target: T1, Muc1 mucin carrying the CA6 …; test: flow cytometry on Caov-3 cells
[14] = target: T1, Muc1 mucin carrying the CA6 …; test: flow cytometry on HeLa cells
[15] = target: T1, Muc1 mucin carrying the CA6 …; test: flow cytometry on Caov-3 cells, FITC anti-mouse IgG
Description: The fluorescence of cell lines incubated with the DS6 primary antibody and FITC conjugated anti-mouse IgG(H+L) secondary antibodies was measured by flow cytometry.
as §1

[16] = target: T1, Muc1 mucin carrying the CA6 …; test: flow cytometry on MCF-7 cells, apparent Kd
Description: as §2, §1

[17] = target: T1, Muc1 mucin carrying the CA6 …; test: flow cytometry on BT-20 cells, apparent Kd
Description: as §2, §1

[18] = target: T1, Muc1 mucin carrying the CA6 …; test: flow cytometry on CaOV3 cells, apparent Kd
[19] = target: T1, Muc1 mucin carrying the CA6 …; test: flow cytometry on SU.86.86 cells, apparent Kd
Description: as §1

[20] = target: T1, Muc1 mucin carrying the CA6 …; test: flow cytometry on ZR-75-1 cells, apparent Kd
Description: as §2, §1

[21] = target: T1, Muc1 mucin carrying the CA6 …; test: flow cytometry on T98G cells, apparent Kd
Description: as §1

Kd [1]: 4.04 nM
Kd [2]: 23.5 nM
Kd [3]: 1.93 nM
Kd [4]: 0.368 nM
Kd [5]: 0.813 nM
Kd [6]: 1.05 nM
Kd [7]: 23.5 nM
Kd [8]: 1.46 nM
Kd [9]: 1.11 nM
Kd [10]: 0.694 nM
Kd [11]: 2.32 nM
Kd [12]: 2.81 nM
Kd [13]: 2.02 nM
Kd [14]: 0.62 nM
Kd [15]: 1.85 nM
Kd [16]: 2.89 nM
Kd [17]: 0.914 nM
Kd [18]: 5.48 nM
Kd [19]: 1.04 nM
Kd [20]: 4.3 nM
Kd [21]: 0.177 nM
B1: murine DS6 anti-CA6 monoclonal antibody (antibody, IgG1, V domains shown)
VH: QAYLQQSGAELVRSGASVKMSCKASGYTFTSYNMHWVKQTPGQGLEWIGYIYPGNGATNYNQKFKGKATLTADPSSSTAYMQISSLTSEDSAVYFCARGDSVPFAYWGQGTLVTVSA
VL: QIVLTQSPAIMSASPGEKVTITCSAHSSVSFMHWFQQKPGTSPKLWIYSTSSLASGVPARFGGSGSGTSYSLTISRMEAEDAATYYCQQRSSFPLTFGAGTKLELKR
notes: Whole murine monoclonal IgG from the DS6 hybridoma (ATCC PTA-4449); the 3' heavy chain cloning primer was BamIgG1 and the light chain primer was kappa; also called DS6 antibody; muDS6
